Experimental data: publication PMC10144703, “Molecular Mechanism of Sirtuin 1 Inhibition by Human Immunodeficiency Virus 1 Tat Protein” (Life, 2023)

Legend:
[1] = molecular target: T1, human full-length Sirt1 (fl-Sirt1) (Homo sapiens, UniProt Q96EB6); assay: FdL deacetylation assay, fl-Sirt1; format: biochemical; settings: Figure 1D,E; compared with Sirt2 and Sirt3
T1 construct: human full-length Sirt1 (fl-Sirt1) in pET-15b; made in house; host or cells: E. coli CodonPlus(DE3)
T1 sequence (Q96EB6 1-747): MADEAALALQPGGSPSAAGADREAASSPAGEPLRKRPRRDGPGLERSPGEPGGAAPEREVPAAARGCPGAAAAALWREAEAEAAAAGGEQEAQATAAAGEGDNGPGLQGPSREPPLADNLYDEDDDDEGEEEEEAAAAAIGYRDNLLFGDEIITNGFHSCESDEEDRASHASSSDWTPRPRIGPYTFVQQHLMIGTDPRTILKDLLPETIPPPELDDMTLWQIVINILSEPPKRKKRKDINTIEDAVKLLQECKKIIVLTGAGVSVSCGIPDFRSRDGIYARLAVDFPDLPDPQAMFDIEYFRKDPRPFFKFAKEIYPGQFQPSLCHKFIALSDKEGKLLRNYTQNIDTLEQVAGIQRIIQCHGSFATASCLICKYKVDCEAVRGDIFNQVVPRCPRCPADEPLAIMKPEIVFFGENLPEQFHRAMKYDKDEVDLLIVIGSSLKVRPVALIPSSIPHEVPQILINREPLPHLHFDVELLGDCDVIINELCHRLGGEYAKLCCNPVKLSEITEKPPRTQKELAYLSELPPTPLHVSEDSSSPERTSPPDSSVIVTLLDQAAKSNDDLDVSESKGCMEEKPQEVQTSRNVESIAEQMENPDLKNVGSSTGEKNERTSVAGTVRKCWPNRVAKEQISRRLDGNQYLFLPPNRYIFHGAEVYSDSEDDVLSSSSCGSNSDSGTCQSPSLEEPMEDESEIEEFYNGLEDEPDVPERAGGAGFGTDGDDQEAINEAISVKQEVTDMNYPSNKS
Source text: (§1) A human mini-Sirt1 construct (aa 183-505-(GGGS)2-641-665), as described in [27], was generated in a modified pET-19b with a TEV cleavage site. This construct and human full-length Sirt1 (fl-Sirt1) in pET-15b, Sirt1-(183-664) and Sirt1-(214-664) in pET-15b, mini-Sirt1-∆SBD (aa 214-505-(GGGS)2-641-665) and mini-Sirt1-∆ESA (aa 183–505) in a modified pET-19b with TEV cleavage site, Sirt2-(43-356) in a modified pET-19b with a His6-Sumo tag, Sirt3-(93-399) in a modified pET-32a with Trx-His6 tag and TEV cleavage site, hSirt3-(118-399) in pVFT3S (Sungkyunkwan University, Seoul, Republic of Korea) with His6-Trx tag and TEV cleavage site, Sirt5-(34-302) in pET-151/D-TOPO, and Sirt6-(1-355) in pQE80L.1 were purified as described. Shortly, proteins were expressed at 20 °C (mini-Sirt1 constructs at 16 °C) in E. coli CodonPlus(DE3), cell lysates were cleared by centrifugation, and proteins were purified via affinity chromatography using a nickel NTA column. After digestion with thrombin or TEV protease, proteins were re-run over the nickel NTA column, pooled, and concentrated. The samples were, then, subjected either directly to size exclusion chromatography in 50 mM Tris/HCl, pH 8.0, 150 mM NaCl, 1 mM TCEP, or to an ion exchange chromatography followed by size exclusion chromatography. […]

[2] = molecular target: T2, human mini-Sirt1 (aa 183-505-(GGGS)2-641-665) (Homo sapiens, UniProt Q96EB6); assay: FdL assay, mini-Sirt1; format: biochemical; settings: Michaelis–Menten
T2 construct: aa 183-505-(GGGS)2-641-665; made in house; host or cells: E. coli CodonPlus(DE3)
T2 sequence (Q96EB6 with tags, fused parts or gaps limits assumed): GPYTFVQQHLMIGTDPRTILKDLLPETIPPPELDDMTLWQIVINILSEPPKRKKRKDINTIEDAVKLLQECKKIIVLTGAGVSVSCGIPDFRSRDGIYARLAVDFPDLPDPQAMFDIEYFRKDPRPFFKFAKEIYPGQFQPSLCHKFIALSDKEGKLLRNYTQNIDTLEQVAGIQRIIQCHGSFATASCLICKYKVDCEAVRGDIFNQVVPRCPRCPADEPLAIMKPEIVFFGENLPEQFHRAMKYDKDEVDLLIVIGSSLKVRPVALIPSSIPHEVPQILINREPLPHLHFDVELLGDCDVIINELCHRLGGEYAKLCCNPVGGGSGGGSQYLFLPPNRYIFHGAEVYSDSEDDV
Source text: as §1

[3] = test system: mini-Sirt1-∆SBD (aa 214-505-(GGGS)2-641-665); assay: Inhibition of mini-Sirt1-∆SBD (ac-p53 substrate); format: biochemical, human; settings: dose-dependent, 100 µM ac-p53, n = 3; relative to mini-Sirt1
Source text: (§2) A human mini-Sirt1 construct (aa 183-505-(GGGS)2-641-665), as described in [27], was generated in a modified pET-19b with a TEV cleavage site. This construct and human full-length Sirt1 (fl-Sirt1) in pET-15b, Sirt1-(183-664) and Sirt1-(214-664) in pET-15b, mini-Sirt1-∆SBD (aa 214-505-(GGGS)2-641-665) and mini-Sirt1-∆ESA (aa 183–505) in a modified pET-19b with TEV cleavage site, Sirt2-(43-356) in a modified pET-19b with a His6-Sumo tag, Sirt3-(93-399) in a modified pET-32a with Trx-His6 tag and TEV cleavage site, hSirt3-(118-399) in pVFT3S (Sungkyunkwan University, Seoul, Republic of Korea) with His6-Trx tag and TEV cleavage site, Sirt5-(34-302) in pET-151/D-TOPO, and Sirt6-(1-355) in pQE80L.1 were purified as described. […]
(§3) Continuous coupled enzymatic sirtuin activity assays were conducted as described. […] Reactions were monitored for 1 h at room temperature by absorption spectroscopy at 340 nm in a UV/vis plate reader (BioTek). The slope for the linear range (typically 5–25 min) was evaluated after background correction with measurements without NAD^+. Additional control reactions were run by either omitting enzyme or omitting peptide substrate to ensure that the signal measured reflects the NAD+-dependent deacetylation activity of the sirtuin.

[4] = test system: mini-Sirt1-∆ESA (aa 183–505); assay: Inhibition of mini-Sirt1-∆ESA (ac-p53 substrate); format: biochemical, human; settings: dose-dependent, 100 µM ac-p53, n = 3; relative to mini-Sirt1
Source text: as §2, §3

B1: Tat-Cys^−: Recombinant 86-residue HIV1 Zaire 2 Tat with C22S, C25A, C27A, C30S, C31A, C34S, and C37A (protein)
chain: MDPVDPNIEPWNHPGSQPKTASNRAHAKKSAYHSQVAFITKGLGISYGRKKRRQRRRPSQGGQTHQDPIPKQPSSQPRGDPTGPKE
- relative isoform inhibition, Sirt1 vs other isoforms [1]: slightly more potent inhibition of this isoform
- inhibition mode vs acetylated substrate peptide, Sirt1 ([2]; FdL-1, mini-Sirt1, increasing Tat-Cys^−, n = 3): competitive with the acetylated substrate peptide
- inhibition mode vs NAD^+, Sirt1 ([2]; NAD^+, mini-Sirt1, increasing Tat-Cys^−, n = 3–6): non-competitive with NAD^+
- inhibitory effects, mini-Sirt1-∆SBD [3]: unchanged inhibitory effects
- inhibitory effects, mini-Sirt1-∆ESA [4]: unchanged inhibitory effects
